Results from the supplement of paper PMC7125110.
± gives the standard error. This sample holds only a part of the variants without activity.

B1: glmS ribozyme (parent)
chain: AUAAAAGCGCCAGAACUACAGAAAUGUAGUUGACGAGGAGGAGGUUUAUCGAAUUUUCGGCGGAUGCCUCCAAA

Columns and labels:
Details in all cases: with glucosamine-6-phosphate
glucosamine-6-phosphate [1] = variants of: B1; experiment: self-cleavage kobs at 40 uM GlcN6P; higher = faster cleavage; RNA array
In short: (§1)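 Tracking of barcoded ribozyme variants used a hybridised Cy3 probe at 37 °C, after in situ transcription by E. coli RNA polymerase on sequenced MiSeq chips. The flowed solution held 40 μM to 10 mM glucosamine-6-phosphate in HEPES/KCl/Mg(OAc)2 buffer, and imaging ran over ~14 h. kobs was taken from exponential decay fits of normalised per-tile medians, and kcat and KM from weighted Michaelis–Menten fits.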

glucosamine-6-phosphate [2] = variants of: B1; experiment: self-cleavage kobs at 640 uM GlcN6P; higher = faster cleavage; RNA array
In short: as §1

glucosamine-6-phosphate [3] = variants of: B1; experiment: self-cleavage kobs at 2500 uM GlcN6P; higher = faster cleavage; RNA array
In short: as §1

glucosamine-6-phosphate [4] = variants of: B1; experiment: self-cleavage kobs at 160 uM GlcN6P; higher = faster cleavage; RNA array
In short: as §1

glucosamine-6-phosphate [5] = variants of: B1; experiment: self-cleavage kobs at 10000 uM GlcN6P; higher = faster cleavage; RNA array
In short: as §1

Variant	self-cleavage kobs at 40 uM GlcN6P (glucosamine-6-phosphate [1]) [s⁻¹]	self-cleavage kobs at 640 uM GlcN6P (glucosamine-6-phosphate [2]) [s⁻¹]	self-cleavage kobs at 2500 uM GlcN6P (glucosamine-6-phosphate [3]) [s⁻¹]	self-cleavage kobs at 160 uM GlcN6P (glucosamine-6-phosphate [4]) [s⁻¹]	self-cleavage kobs at 10000 uM GlcN6P (glucosamine-6-phosphate [5]) [s⁻¹]
C8G U31A A36G	< 1e-05	–	–	–	–
C11G A15U C34G A39U A48G	< 1e-05	< 1e-05	< 1e-05	–	–
U56G G63U	< 1e-05	< 1e-05	–	< 1e-05	< 1e-05
A36U U55G G63A C71A	< 1e-05	–	–	–	–
G51A C58G	< 1e-05	–	–	–	< 1e-05
A6C G62A	< 1e-05	< 1e-05	–	< 1e-05	–
G29U U31C A48C	< 1e-05	–	–	–	< 1e-05
C34A G41C A53G U54A U56G	< 1e-05	–	–	–	< 1e-05
U30A A52U U54A C71A	< 1e-05	–	–	–	–
C10A G40C	< 1e-05	< 1e-05	–	< 1e-05	< 1e-05
A36G A48U	< 1e-05	< 1e-05	< 1e-05	< 1e-05	< 1e-05
A53G G66U C67A	7.95e-05 ± 1.9e-05	–	–	–	0.00186 ± 0.00059
G35A A42G	< 1e-05	< 1e-05	< 1e-05	< 1e-05	< 1e-05
C11U A48G A53G	< 1e-05	–	–	–	< 1e-05
A53G C61G C70U	< 1e-05	–	–	–	< 1e-05
A12U U30A C70U	0.000748 ± 0.00013	–	–	–	0.0461 ± 0.017
C8U A53U	< 1e-05	< 1e-05	–	–	< 1e-05
U31A A36U	< 1e-05	< 1e-05	< 1e-05	< 1e-05	< 1e-05
C8U G43U G44U C71A	< 1e-05	< 1e-05	–	–	–
G29A G35C A39G G41U G43C G62A A64U	< 1e-05	< 1e-05	< 1e-05	–	< 1e-05
U31G U57G	< 1e-05	–	–	–	–
C8A U47C U65A	< 1e-05	–	–	–	–
G43C A53C U56C	< 1e-05	–	< 1e-05	< 1e-05	< 1e-05
G41C G44C	< 1e-05	< 1e-05	< 1e-05	< 1e-05	< 1e-05

Variant	self-cleavage kobs at 40 uM GlcN6P (glucosamine-6-phosphate [1]) [s⁻¹]	self-cleavage kobs at 640 uM GlcN6P (glucosamine-6-phosphate [2]) [s⁻¹]	self-cleavage kobs at 2500 uM GlcN6P (glucosamine-6-phosphate [3]) [s⁻¹]	self-cleavage kobs at 160 uM GlcN6P (glucosamine-6-phosphate [4]) [s⁻¹]	self-cleavage kobs at 10000 uM GlcN6P (glucosamine-6-phosphate [5]) [s⁻¹]
C8G G29U A33C C68A	< 1e-05	< 1e-05	–	–	< 1e-05
G9U C16G	< 1e-05	–	< 1e-05	–	–
U31G A42G	0.00033 ± 8.8e-05	0.00343 ± 0.0011	0.00724 ± 0.0018	–	0.0263 ± 0.0086
G7U U45G	< 1e-05	< 1e-05	< 1e-05	< 1e-05	< 1e-05
G41C C50U	< 1e-05	< 1e-05	< 1e-05	–	< 1e-05
C8U G37C A42U U55C	< 1e-05	–	–	–	–
G13A C16U C67U	< 1e-05	–	0.000111 ± 2.7e-05	–	0.00025 ± 4.5e-05
C11U C34U	< 1e-05	< 1e-05	–	–	< 1e-05
A42G C50U G63U C71G	< 1e-05	–	–	–	< 1e-05
A53U G62C	< 1e-05	< 1e-05	< 1e-05	–	< 1e-05
U30G A42G U55G	0.000185 ± 4.5e-05	–	0.0026 ± 0.00051	–	0.00677 ± 0.0014
U49C C70U	< 1e-05	< 1e-05	–	–	< 1e-05
G9C C11U U31C A36G G38A C50G U69G C70G	0.00075 ± 0.00022	–	–	–	0.000818 ± 0.00021
G7U C8A U47G G60U	< 1e-05	–	–	–	< 1e-05
A64G U65A C68G	< 1e-05	–	–	–	–
G13C G62A	< 1e-05	–	< 1e-05	–	–
U47A C50G C68A	0.000209 ± 7.9e-05	–	–	–	0.000323 ± 6.5e-05
U31G U54A	0.000582 ± 0.00015	–	0.00634 ± 0.0018	–	0.00833 ± 0.002
A15G U55A	0.000962 ± 0.00014	0.0107 ± 0.0017	–	0.00144 ± 0.00025	0.0387 ± 0.0094
C58G C61U	< 1e-05	–	–	–	–
A14U A53U C71U	9.83e-05 ± 2.7e-05	0.000509 ± 8.6e-05	0.00145 ± 0.00032	0.00021 ± 4.5e-05	0.00546 ± 0.0013
A15C A52U A53G U56C	< 1e-05	–	–	–	< 1e-05
C8G A36U G37U A52U U54A	< 1e-05	–	–	–	< 1e-05
A14U G37U C70A	< 1e-05	–	–	–	–
